From patent US20150210761A1 (SAMSUNG ELECTRONICS, published 2015)

Experiments:
Experiment in all cases: ELISA; antibody coated, FLAG-tagged RBD mutant, anti-FLAG-HRP detection
[1] = biological target: T1, Ang2 RBD mutant Q418 (human, UniProt O15123 276-496)
T1 chain: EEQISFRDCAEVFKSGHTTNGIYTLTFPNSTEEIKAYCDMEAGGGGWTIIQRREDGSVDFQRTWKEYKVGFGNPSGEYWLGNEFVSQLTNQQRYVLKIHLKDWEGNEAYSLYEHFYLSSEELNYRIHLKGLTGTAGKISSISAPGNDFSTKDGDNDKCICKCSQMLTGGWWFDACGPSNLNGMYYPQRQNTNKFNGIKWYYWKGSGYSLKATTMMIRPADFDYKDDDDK

[2] = biological target: T2, Ang2 RBD mutant S417 (human, UniProt O15123 276-496)
T2 chain: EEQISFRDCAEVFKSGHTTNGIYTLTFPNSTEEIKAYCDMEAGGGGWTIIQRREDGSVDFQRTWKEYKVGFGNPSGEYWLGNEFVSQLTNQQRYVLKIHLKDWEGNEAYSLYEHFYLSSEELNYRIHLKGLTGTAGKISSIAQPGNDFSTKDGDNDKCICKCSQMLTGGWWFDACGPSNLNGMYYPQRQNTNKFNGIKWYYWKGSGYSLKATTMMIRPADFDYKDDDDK

[3] = biological target: T3, Ang2 RBD mutant I434 (human, UniProt O15123 276-496)
T3 chain: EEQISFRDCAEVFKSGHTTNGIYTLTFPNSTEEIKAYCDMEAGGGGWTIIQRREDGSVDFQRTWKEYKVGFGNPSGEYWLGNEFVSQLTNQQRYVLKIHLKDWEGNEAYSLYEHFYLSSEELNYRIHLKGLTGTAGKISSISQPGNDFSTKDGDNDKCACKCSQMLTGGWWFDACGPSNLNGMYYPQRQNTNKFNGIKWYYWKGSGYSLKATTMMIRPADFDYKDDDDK

[4] = biological target: T4, Ang2 RBD mutant P419 (human, UniProt O15123 276-496)
T4 chain: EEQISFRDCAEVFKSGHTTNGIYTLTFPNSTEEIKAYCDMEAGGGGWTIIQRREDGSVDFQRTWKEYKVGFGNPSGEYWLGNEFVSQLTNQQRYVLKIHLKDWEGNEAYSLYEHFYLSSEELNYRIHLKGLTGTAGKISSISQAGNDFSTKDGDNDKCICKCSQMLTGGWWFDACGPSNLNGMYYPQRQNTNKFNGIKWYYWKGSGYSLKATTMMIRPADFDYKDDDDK

[5] = biological target: T5, Ang2 RBD mutant N421 (human, UniProt O15123 276-496)
T5 chain: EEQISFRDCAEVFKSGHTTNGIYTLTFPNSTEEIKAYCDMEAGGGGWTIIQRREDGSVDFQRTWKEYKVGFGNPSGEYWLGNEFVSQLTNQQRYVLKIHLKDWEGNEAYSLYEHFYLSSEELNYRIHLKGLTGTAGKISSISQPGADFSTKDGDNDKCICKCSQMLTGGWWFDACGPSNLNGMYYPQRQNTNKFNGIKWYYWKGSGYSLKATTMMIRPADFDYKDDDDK

[6] = biological target: T6, Ang2 RBD mutant K468 (human, UniProt O15123 276-496)
T6 chain: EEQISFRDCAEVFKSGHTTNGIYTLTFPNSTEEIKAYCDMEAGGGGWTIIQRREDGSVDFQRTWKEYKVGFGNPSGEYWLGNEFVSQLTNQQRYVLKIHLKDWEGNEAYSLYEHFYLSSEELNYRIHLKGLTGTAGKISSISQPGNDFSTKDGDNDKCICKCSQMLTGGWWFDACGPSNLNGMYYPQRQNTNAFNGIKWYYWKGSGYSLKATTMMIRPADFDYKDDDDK

Binding (%) (mutant Ang2 / native Ang2) [1]: 97.2%
Binding (%) (mutant Ang2 / native Ang2) [2]: 100%
Binding (%) (mutant Ang2 / native Ang2) [3]: 93.2%
Binding (%) (mutant Ang2 / native Ang2) [4]: 102%
Binding (%) (mutant Ang2 / native Ang2) [5]: 89.3%
Binding (%) (mutant Ang2 / native Ang2) [6]: 27.3%
B1: SAIT-ANG2-AB-m1A10 (antibody, V domains shown)
VH: QVQLQQSGAELMKPGASVKISCKATDYTFSSYWLEWLIQRPGHGLEWIGEILPGSGSTNYNEKFRGKATFTEDTSSNTAYMQLSSLTSEDSAVYYCARGNHNSYYYAMDYWGQGTSVTVSS
VL: DIVLTQSPASLAVSLGQRATISCRASESVDSYGNSFMHWYQQKPGQPPKLLIYRASNLDSGIPARFSGSGSRTDFTLTINPVEADDVATYYCQQSNEDPLTFGAGTKLELK
notes: also called hybridoma KCLRF-BP-00306
